In patent publication US20140087995A1 (published 2014):
Numbered stars: 1 amine (or outer) side, 2 acyl side, 3 side chain; on linkers, the order of the positions; unused ones are H or OH. Bridge positions count the residues as written; N and C are the ends. Side chains are listed from the residue outwards. Ends that are not written are not given here. * marks the point of attachment. C20 diacid = O=C(O)CCCCCCCCCCCCCCCCCCC(=O)*; γGlu = O=C(O)[C@H](CCC(=O)[*:2])N[*:1]

T1: human amylin 3(a) receptor (human calcitonin receptor co-expressed with RAMP-3) (human, UniProt P30988 25-474; O60896 24-148, limits assumed)
T1 sequence (looked up) 1: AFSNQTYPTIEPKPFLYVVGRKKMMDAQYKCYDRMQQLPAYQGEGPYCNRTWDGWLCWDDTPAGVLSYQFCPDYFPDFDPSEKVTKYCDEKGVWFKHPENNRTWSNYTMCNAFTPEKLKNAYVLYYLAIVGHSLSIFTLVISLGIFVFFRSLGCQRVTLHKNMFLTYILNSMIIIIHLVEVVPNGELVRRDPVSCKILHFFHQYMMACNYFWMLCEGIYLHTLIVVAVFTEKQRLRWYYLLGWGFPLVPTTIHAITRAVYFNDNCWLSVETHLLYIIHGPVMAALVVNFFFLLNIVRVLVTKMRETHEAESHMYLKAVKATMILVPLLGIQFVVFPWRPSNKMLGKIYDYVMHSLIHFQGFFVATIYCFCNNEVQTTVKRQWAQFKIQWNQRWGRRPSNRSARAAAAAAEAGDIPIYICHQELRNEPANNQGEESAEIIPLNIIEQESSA
T1 sequence (looked up) 2: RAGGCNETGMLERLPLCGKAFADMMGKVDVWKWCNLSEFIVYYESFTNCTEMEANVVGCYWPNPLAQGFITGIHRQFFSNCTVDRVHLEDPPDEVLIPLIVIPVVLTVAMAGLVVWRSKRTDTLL

T2: human calcitonin receptor (human, UniProt P30988 25-474)
T2 sequence (looked up): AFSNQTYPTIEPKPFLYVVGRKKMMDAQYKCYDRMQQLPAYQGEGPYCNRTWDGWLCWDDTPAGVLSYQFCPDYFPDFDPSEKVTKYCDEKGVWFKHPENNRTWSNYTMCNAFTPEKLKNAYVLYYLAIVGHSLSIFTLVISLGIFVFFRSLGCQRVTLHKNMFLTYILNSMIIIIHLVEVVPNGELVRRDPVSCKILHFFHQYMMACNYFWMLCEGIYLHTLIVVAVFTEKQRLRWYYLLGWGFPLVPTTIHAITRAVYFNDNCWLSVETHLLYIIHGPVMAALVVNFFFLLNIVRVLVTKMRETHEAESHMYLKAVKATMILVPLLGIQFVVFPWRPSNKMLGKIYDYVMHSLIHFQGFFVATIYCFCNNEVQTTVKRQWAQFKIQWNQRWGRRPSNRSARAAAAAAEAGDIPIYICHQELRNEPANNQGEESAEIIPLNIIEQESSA

T3: human amylin 3(a) receptor (human calcitonin receptor + RAMP-3) (human, UniProt P30988 25-474; O60896 24-148, limits assumed)
T3 sequence (looked up) 1: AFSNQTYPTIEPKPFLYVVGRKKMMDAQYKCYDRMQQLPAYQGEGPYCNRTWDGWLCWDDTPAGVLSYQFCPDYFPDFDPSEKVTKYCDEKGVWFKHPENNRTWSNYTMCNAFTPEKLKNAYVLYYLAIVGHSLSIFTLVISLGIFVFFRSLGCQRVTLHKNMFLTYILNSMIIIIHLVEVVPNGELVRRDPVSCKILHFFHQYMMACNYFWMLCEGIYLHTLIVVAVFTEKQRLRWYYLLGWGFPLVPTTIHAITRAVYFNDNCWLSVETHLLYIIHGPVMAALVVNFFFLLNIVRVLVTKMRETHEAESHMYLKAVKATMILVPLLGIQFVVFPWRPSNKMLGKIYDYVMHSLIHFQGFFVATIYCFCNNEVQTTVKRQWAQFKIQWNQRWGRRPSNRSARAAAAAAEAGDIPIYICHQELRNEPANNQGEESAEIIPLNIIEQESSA
T3 sequence (looked up) 2: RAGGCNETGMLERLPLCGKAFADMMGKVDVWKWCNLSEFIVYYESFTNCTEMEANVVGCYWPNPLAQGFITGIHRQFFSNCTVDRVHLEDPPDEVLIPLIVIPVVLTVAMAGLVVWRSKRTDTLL

T4: human calcitonin receptor (human, UniProt P30988 25-474)
T4 sequence (looked up): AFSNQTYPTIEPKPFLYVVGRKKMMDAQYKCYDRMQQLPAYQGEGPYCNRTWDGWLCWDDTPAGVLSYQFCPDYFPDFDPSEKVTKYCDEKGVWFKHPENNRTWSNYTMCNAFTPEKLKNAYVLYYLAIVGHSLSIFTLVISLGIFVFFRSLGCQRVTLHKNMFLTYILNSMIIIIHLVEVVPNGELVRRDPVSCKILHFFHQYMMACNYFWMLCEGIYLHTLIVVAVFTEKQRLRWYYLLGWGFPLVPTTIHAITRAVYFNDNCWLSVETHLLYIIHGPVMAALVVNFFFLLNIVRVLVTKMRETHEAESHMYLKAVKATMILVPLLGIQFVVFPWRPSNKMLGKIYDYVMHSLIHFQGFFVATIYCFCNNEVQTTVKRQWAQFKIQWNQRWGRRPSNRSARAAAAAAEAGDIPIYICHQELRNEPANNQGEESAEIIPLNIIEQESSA


Assays:
[1] = biological target: T1, human amylin 3(a) receptor (human …); test: cell-based or functional assay
[2] = biological target: T2, human calcitonin receptor; test: cell-based or functional assay
[3] = biological target: T1, human amylin 3(a) receptor (human …); test: SPA competition binding (Assay V): displacement of 125I-rat amylin from membranes of BHK cells with human calcitonin receptor + RAMP-3
Procedure: (§1) The binding assay was performed using scintillation proximity assay (SPA) beads (RPNQ0001) from PerkinElmer and cell membranes from the Amylin 3(a)/CRE-luc cells (as described in Assay (II)) were used. Membranes were prepared in the following way; the cells were rinsed with PBS and incubated with Versene for approximately 5 min before harvesting. The cells were flushed with PBS and the cell-suspension was centrifuged for 5 min at 1000 rpm. Cells were homogenized (ultrathurrax) in a buffer containing 20 mM Na-HEPES and 10 mM EDTA (pH 7.4) and centrifuged at 20.000 rpm for 15 min. The resulting pellet was resuspended, homogenized and centrifuged (20.000 rpm, 15 min) in a buffer containing 20 mM Na-HEPES and 0.1 mM EDTA (pH 7.4, buffer 2). The resulting pellet was resuspended in buffer 2 and protein concentration was measured (BCA protein Assay, Pierce). The homogenate was kept cold during the whole procedure. The membranes were kept at −80° C. until use. The assay was performed in a 384 well Optiplate (PerkinElmer) in a total volume of 40 ul. Membranes were mixed with SPA beads. Final concentration of membranes 35 ng/μL final and SPA beads was 0.05 mg/well. Test-compounds were dissolved in DMSO and further diluted in assay buffer (50 mM Hepes, pH 7.4, 1 mM CaCl2, 5 mM MgCl₂, 0.1% OA and 0.02% Tween20). […] The final mixture was incubated with shaking at 400 rpm for 120 min at 25° C. prior to centrifugation (1500 rpm, 10 min). Samples were analyzed on TopCounter™ (Packard). The IC₅₀ was calculated using (one site binding competition analysis) GraphPad Prism5 as a measure of receptor affinity.

[4] = biological target: T3, human amylin 3(a) receptor (human …); test: cell-based or functional assay
[5] = biological target: T4, human calcitonin receptor; test: cell-based or functional assay; remark: listed apart in the source
[6] = biological target: T3, human amylin 3(a) receptor (human …); test: SPA competition binding, membranes of BHK cells with human calcitonin receptor + RAMP-3, displacement of 125I-rat amylin (Assay V)
Procedure: as §1

Binder | Ratio hCT/hAmylin funct. (hCTR EC50 over hAmylin-R EC50) [1] | hAmylin-R funct. EC50 (CRE luciferase reporter, BHK cells) [1] | hCTR funct. EC50 (CRE luciferase reporter, BHK cells) [2] | IC50 [3] | hAmylin-R funct. EC50 (pM) [4] | Ratio hCT/hAmylin funct. [5] | IC50 [6]
K([γGlu-γGlu-C20 diacid])CNTATCATQRLADFLRHSSPNFGAIPSSTNVGPRTY-NH2 (disulfide 2-7, also called compound 130) | 44.9 | 0.162 nM | 7.28 nM | 0.453 nM |  |  | 
{C20 diacid-γGlu}-KCNTATCATQRLAEFLRHSSPNFGAPLSSTNVGSNTP-NH2 (disulfide 2-7; SMILES CC(C)C[C@H](NC(=O)[C@H](CCCNC(=N)N)NC(=O)[C@H](CCC(N)=O)NC(=O)[C@@H](NC(=O)[C@H](C)NC(=O)[C@@H]1CSSC[C@H](NC(=O)[C@H](CCCCN)NC(=O)CC[C@H](NC(=O)CCCCCCCCCCCCCCCCCCC(=O)O)C(=O)O)C(=O)N[C@@H](CC(N)=O)C(=O)N[C@@H]([C@@H](C)O)C(=O)N[C@@H](C)C(=O)N[C@@H]([C@@H](C)O)C(=O)N1)[C@@H](C)O)C(=O)N[C@@H](C)C(=O)N[C@@H](CCC(=O)O)C(=O)N[C@@H](Cc1ccccc1)C(=O)N[C@@H](CC(C)C)C(=O)N[C@@H](CCCNC(=N)N)C(=O)N[C@@H](Cc1c[nH]cn1)C(=O)N[C@@H](CO)C(=O)N[C@@H](CO)C(=O)N1CCC[C@H]1C(=O)N[C@@H](CC(N)=O)C(=O)N[C@@H](Cc1ccccc1)C(=O)NCC(=O)N[C@@H](C)C(=O)N1CCC[C@H]1C(=O)N[C@@H](CC(C)C)C(=O)N[C@@H](CO)C(=O)N[C@@H](CO)C(=O)N[C@H](C(=O)N[C@@H](CC(N)=O)C(=O)N[C@H](C(=O)NCC(=O)N[C@@H](CO)C(=O)N[C@@H](CC(N)=O)C(=O)N[C@H](C(=O)N1CCC[C@H]1C(N)=O)[C@@H](C)O)C(C)C)[C@@H](C)O, also called compound 5) |  |  |  |  | 162 pM | 1 | 0.374 nM
{C20 diacid-γGlu}-KCNTATCATQRLAEFLRHSSPNFGAILPSTNVGSETY-NH2 (disulfide 2-7, also called compound 33) |  |  |  |  | 243 pM | 2.2 | 0.915 nM
